In patent publication US20260217779A1 (Chugai, published 2026):
Substitutions are numbered along the chain they refer to. In names and notes the source's numbering stands.

T1: human CXCR3 (hCXCR3) on Ba/F3 transfectant cells (human, UniProt P49682 1-368)
T1 sequence: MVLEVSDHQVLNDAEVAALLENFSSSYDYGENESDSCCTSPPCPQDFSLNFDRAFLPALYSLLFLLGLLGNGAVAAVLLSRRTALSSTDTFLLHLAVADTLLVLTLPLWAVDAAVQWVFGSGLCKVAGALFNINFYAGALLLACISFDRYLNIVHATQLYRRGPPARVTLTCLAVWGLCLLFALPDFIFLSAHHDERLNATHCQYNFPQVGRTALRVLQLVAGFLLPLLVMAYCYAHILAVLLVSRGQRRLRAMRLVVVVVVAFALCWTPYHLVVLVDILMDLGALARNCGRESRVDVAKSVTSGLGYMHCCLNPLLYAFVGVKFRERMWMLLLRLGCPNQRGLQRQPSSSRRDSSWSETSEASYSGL

B1: hCXCL11.0048-G1T4k.one//VHn-G1T4h.one.H435R (Fc fusion)
chain 1: FLPMFKRGRCLCIGPGVKAVKVADIEKASIMYPSNNCDKIEVIITLKENKGQRCLNPKSKQARLIIKKVERKNFEPKSSDKTHTCPPCPAPELRRGPSVFLFPPKPKDTLMISRTPEVTCVVVDVSHEDPEVKFNWYVDGVEVHNAKTKPREEQYNSTYRVVSVLTVLHQDWLNGKEYKCKVSNKGLPSSIEKTISKAKGQPREPQVCTLPPSREEMTKNQVSLWCLVKGFYPSDIAVEWESNGQPENNYKTTPPVLDSDGSFFLYSKLTVDKSRWQEGNVFSCSVMHEALHNHYTQKSLSLSP
chain 2: EPKSSDKTHTCPPCPAPELRRGPSVFLFPPKPKDTLMISRTPEVTCVVVDVSHEDPEVKFNWYVDGVEVHNAKTKPREEQYNSTYRVVSVLTVLHQDWLNGKEYKCKVSNKGLPSSIEKTISKAKGQPREPQVYTLPPSRCEMTKNQVSLSCAVKGFYPSDIAVEWESNGQPENNYKTTPPVLDSDGSFFLVSKLTVDKSRWQEGNVFSCSVMHEALHNRYTQKSLSLSP
B2: hCXCL11.0054-G1T4k.one//VHn-G1T4h.one.H435R (Fc fusion)
chain 1: B1 chain 1 with L2S
chain 2: B1 chain 2
B3: hCXCL11.0057-G1T4k.one//VHn-G1T4h.one.H435R (Fc fusion)
chain 1: B1 chain 1 with L2W
chain 2: B1 chain 2
B4: hCXCL11.0056-G1T4k.one//VHn-G1T4h.one.H435R (Fc fusion)
chain 1: B1 chain 1 with L2V
chain 2: B1 chain 2
B5: hCXCL11.0055-G1T4k.one//VHn-G1T4h.one.H435R (Fc fusion)
chain 1: B1 chain 1 with L2T
chain 2: B1 chain 2
B6: hCXCL11.0053-G1T4k.one//VHn-G1T4h.one.H435R (Fc fusion)
chain 1: B1 chain 1 with L2R
chain 2: B1 chain 2
B7: hCXCL11.0049-G1T4k.one//VHn-G1T4h.one.H435R (Fc fusion)
chain 1: B1 chain 1 with L2M
chain 2: B1 chain 2
B8: hCXCL11.0051-G1T4k.one//VHn-G1T4h.one.H435R (Fc fusion)
chain 1: B1 chain 1 with L2P
chain 2: B1 chain 2
B9: hCXCL11.0052-G1T4k.one//VHn-G1T4h.one.H435R (Fc fusion)
chain 1: B1 chain 1 with L2Q
chain 2: B1 chain 2
B10: hCXCL11.0058-G1T4k.one//VHn-G1T4h.one.H435R (Fc fusion)
chain 1: B1 chain 1 with L2Y
chain 2: B1 chain 2
B11: hCXCL11.0050-G1T4k.one//VHn-G1T4h.one.H435R (Fc fusion)
chain 1: B1 chain 1 with L2N
chain 2: B1 chain 2

target: T1, human CXCR3 (hCXCR3) on Ba/F3 …; experiment: cell-based or functional assay

Activity retention rate at 33 nM [%] | Activity retention rate at 100 nM [%] | Activity retention rate at 300 nM [%] | Luminescence value at 33 nM | Luminescence value at 100 nM | Luminescence value at 300 nM | Binder
52 | 75 | 72 | 3.97e+06 | 1.25e+07 | 8.95e+06 | B1
42 | 63 | 51 | 3.24e+06 | 1.05e+07 | 6.34e+06 | B2
7 | 37 | 86 | 501000 | 6.21e+06 | 1.07e+07 | B3
8 | 33 | 59 | 643000 | 5.57e+06 | 7.33e+06 | B4
39 | 58 | 42 | 2.98e+06 | 9.65e+06 | 5.27e+06 | B5
8 | 26 | 60 | 595000 | 4.26e+06 | 7.43e+06 | B6
66 | 90 | 75 | 5.1e+06 | 1.5e+07 | 9.32e+06 | B7
84 | 89 | 82 | 6.46e+06 | 1.49e+07 | 1.02e+07 | B8
77 | 90 | 67 | 5.88e+06 | 1.51e+07 | 8.33e+06 | B9
15 | 42 | 84 | 1.12e+06 | 7.07e+06 | 1.04e+07 | B10
30 | 51 | 64 | 2.32e+06 | 8.49e+06 | 7.92e+06 | B11
